These results are taken from PMC3094755, “The DNA-Binding Domain of Human PARP-1 Interacts with DNA Single-Strand Breaks as a Monomer through Its Second Zinc Finger”.

Common to all, as to settings: protein: recombinant; label: fluorescein-dT at T8; single-chain dumbbell, 18 bp with central nick, two tetraloops
Series [1] deals with PARP-1 F1+F2 (24-kDa DBD) (Homo sapiens, UniProt P09874 1-214). Put plainly: fluorescence anisotropy; 0 mM NaCl; tight site (KD1); FA: 50 mM Tris-HCl pH 7, 150 uM ZnSO4, 4 mM DTT, 0-200 mM NaCl, 25 C, 10 nM DNA (mutants 25 nM DNA, 25 mM NaCl); EMSA: 50 mM Tris-HCl pH 7.4, 150 uM ZnSO4, 4 mM DTT, 10% glycerol, RT incubation, gel at 4 C; NMR complexes: 50 mM Tris pH 7.0, 150 uM ZnSO4, 4 mM DTT, 37 C.

The next series addresses PARP-1 F2 K131I (Homo sapiens, UniProt P09874 103-214, K131I). The series is described as follows: fluorescence anisotropy; 25 mM NaCl, one-site fit; 50 mM Tris-HCl pH 7.0, 150 uM ZnSO4, 4 mM DTT, 25 C; NaCl 0-200 mM (T2, as in cof; 10 nM DNA) or 25 mM (T3 mutants; 25 nM DNA).
A further series addresses PARP-1 F2 K119I (Homo sapiens, UniProt P09874 103-214, K119I). The series is described as above.
The target of the next series is PARP-1 F2 (Homo sapiens, UniProt P09874 103-214). Described as above.
A further series concerns the target PARP-1 F2 R138I (Homo sapiens, UniProt P09874 103-214, R138I). The series is described as above.
A further series has as its target PARP-1 F2 K197I (Homo sapiens, UniProt P09874 103-214, K197I). Described as above.
The next series has as its target PARP-1 F2 K142I (Homo sapiens, UniProt P09874 103-214, K142I). Described as above.
For a further series, the target named is PARP-1 F2 K134I (Homo sapiens, UniProt P09874 103-214, K134I). The series is described as above.
A further series concerns the target PARP-1 F2 K141I/K142I (Homo sapiens, UniProt P09874 103-214, K141I;K142I). The description is as above.
A further series has as its target PARP-1 F2 W157I (Homo sapiens, UniProt P09874 103-214, W157I). The description is as above.
Another series has as its target PARP-1 F2 K141I (Homo sapiens, UniProt P09874 103-214, K141I). The series is described as above.
A further series has as its target PARP-1 F2 K131I/G135D (Homo sapiens, UniProt P09874 103-214, K131I;G135D). The description is as above.

Chain of PARP-1 F2 (P09874 103-214): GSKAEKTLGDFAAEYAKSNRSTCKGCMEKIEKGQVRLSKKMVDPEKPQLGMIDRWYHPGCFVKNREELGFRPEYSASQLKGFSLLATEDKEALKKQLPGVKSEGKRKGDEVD
Chain of PARP-1 F2 K131I (P09874 103-214 K131I): as the sequence (P09874 103-214) above, with K29I counted along it
Chain of PARP-1 F2 K134I (P09874 103-214 K134I): as the sequence (P09874 103-214) above, with K32I counted along it
Chain of PARP-1 F2 K197I (P09874 103-214 K197I): as the sequence (P09874 103-214) above, with K95I counted along it
Chain of PARP-1 F2 K141I/K142I (P09874 103-214 K141I/K142I): as the sequence (P09874 103-214) above, with K39I, K40I counted along it
Chain of PARP-1 F2 K119I (P09874 103-214 K119I): as the sequence (P09874 103-214) above, with K17I counted along it
Chain of PARP-1 F2 K142I (P09874 103-214 K142I): as the sequence (P09874 103-214) above, with K40I counted along it
Chain of PARP-1 F2 K131I/G135D (P09874 103-214 K131I/G135D): as the sequence (P09874 103-214) above, with K29I, G33D counted along it
Chain of PARP-1 F2 W157I (P09874 103-214 W157I): as the sequence (P09874 103-214) above, with W55I counted along it
Chain of PARP-1 F1+F2 (24-kDa DBD) (P09874 1-214): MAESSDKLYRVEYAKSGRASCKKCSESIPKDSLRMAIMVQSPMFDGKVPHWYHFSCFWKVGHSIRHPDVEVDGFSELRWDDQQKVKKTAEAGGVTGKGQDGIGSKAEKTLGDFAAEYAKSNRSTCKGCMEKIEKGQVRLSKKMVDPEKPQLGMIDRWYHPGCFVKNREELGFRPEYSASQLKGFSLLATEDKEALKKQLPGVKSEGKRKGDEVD
Chain of PARP-1 F2 K141I (P09874 103-214 K141I): as the sequence (P09874 103-214) above, with K39I counted along it
Chain of PARP-1 F2 R138I (P09874 103-214 R138I): as the sequence (P09874 103-214) above, with R36I counted along it

Regarding CGGTCGATCGTAAGATCGACCGGCGCTGGAGCTTGCTCCAGCGC (structured_DNA, 5'-phosphate) [44-nt nicked dumbbell, 5'-phosphate, fluorescein-dT], the dissociation constant Kd is 5.7 nM in series [1]; 1570 nM in the series with PARP-1 F2 K131I; 4550 nM with PARP-1 F2 K119I; 343 nM with PARP-1 F2; 19800 nM with PARP-1 F2 R138I; 664 nM in the series with PARP-1 F2 K197I. The Kd with PARP-1 F2 K142I worked out at 1180 nM; with PARP-1 F2 K134I, 3330 nM; with PARP-1 F2 K141I/K142I, 3930 nM; with PARP-1 F2 W157I, 4930 nM; with PARP-1 F2 K141I, 1490 nM; in the series with PARP-1 F2 K131I/G135D, 3750 nM.
